A word on the Kd: it is the constant that tells how readily two partners part at equilibrium. A word on the koff: it is the rate constant with which the complex falls apart. A high value points to a short-lived complex. As usually defined, the kon is the rate constant with which the complex forms.

Residue numbers refer to the chain shown, from its start. Where two headings read alike, the source gives them in different places.

What all share (test): SPR, Fab captured, 37C
(In SPR one partner is held on a chip, and binding of the other changes the refractive index at the surface.)

The target in experiment [1] is T1, deglycosylated V domain of human CD33 (human, UniProt P20138 18-139, limits assumed, N-glycans removed by PNGase).
T1 construct: V domain deglycosylated by PNGase before testing; also called deglycosylated V CD33
Experimental: (§1) Kinetics and affinity of a series of Fab fragments of anti-CD33 antibodies with different CD33 variants (human CD33 ECD, cyno CD33 ECD, V-domain of human CD33, C-domain or human CD33 and selected CD33 SNPs) were assessed by surface plasmon resonance using Biacore 8K instrument (GE Healthcare). Anti-Fab antibody was immobilized on a CMS chip using standard amine coupling chemistry. CD33 FABs were captured on the anti-Fab chip at a density of ˜100 RU. Solutions containing different concentrations of soluble monomeric CD33 or its domains were injected over the captured FABs and control surfaces at 30 μl/min at 37° C. Surfaces were regenerated between cycles by quick injection of 10 mM glycine, pH 1.8. To obtain kinetic rate constants double-referenced data were fit to a 1:1 interaction model using Biacore 8K Evaluation software (GE Healthcare). The equilibrium binding constant KD was determined by the ratio of binding rate constants kd/kₐ.
(§2) The ability of anti-CD33 antibodies to recognize glycosylated CD33 was assayed. […] De-glycosylation status was confirmed by a shift on SDS-PAGE and MS.

In experiment [2] the target is T2, V domain of human CD33 (human, UniProt P20138 18-139, limits assumed).
T2 construct: recombinant, fully glycosylated V domain; also called Human CD33 V domain
Experimental: as §1, §2

Experiment [3] has as its target T3, human CD33 extracellular domain (human, UniProt P20138 18-259).
T3 construct: soluble monomeric ECD; also called human CD33 ECD; hCD33

Experiment [4] has as its target T3, human CD33 extracellular domain. This is another data set of the same source.
For experiment [5], the target named is T2, V domain of human CD33. This is another data set of the same source.
For experiment [6], the target named is T3, human CD33 extracellular domain. This is another data set of the same source.
Experimental: as §1
(§3) Affinity of 29 Fab fragments binding to human and cyno CD33 ECD were assayed by Biacore analysis.
Experiment [7] addresses T4, cyno CD33 extracellular domain (Cynomolgus/Rhesus (cyno)).
T4 construct: soluble monomeric ECD; also called cyno CD33 ECD
Experimental: as §1, §3

The target of experiment [8] is T5, C domain of human CD33 (human, UniProt P20138 140-259, limits assumed).
T5 construct: recombinant C domain
Experimental: as §1
The binding interface between the Fab fragment of each CD33 antibody to CD33 was mapped.

B1: ADI-11807 Fab (Fab, V domains shown)
VH: EVQLVESGGGLVQPGGSLRLSCAASGFTFGSYWMSWVRQAPGKGLEWVATIKQDGSEKSYVDSVKGRFTISRDNAKNSLYLQMNSLRAEDTAVYYCARPLNAGELDVWGQGTMVTVSS
VL: DIQMTQSPSTLSASVGDRVTITCRASQSISSWLAWYQQKPGKAPKLLIYEASSLESGVPSRFSGSGSGTEFTLTISSLQPDDFATYYCQQSQSYPPITFGGGTKVEIK
notes: Fab fragment; also called Ab5; I07
For the molecule B1, the Kd in experiment [1] was 0.19 nM; in experiment [2] it was 0.28 nM; in experiment [3], 0.29 nM; in experiment [4] it was 0.29 nM; in experiment [5] it was 0.28 nM; in experiment [6], 0.29 nM. The Kd in experiment [7] worked out at 0.15 nM. The koff in experiment [1] stood at 0.000745 s⁻¹; in experiment [2], 0.000847 s⁻¹; in experiment [3], 0.000332 s⁻¹; in experiment [4], 0.000332 s⁻¹; in experiment [5], 0.000847 s⁻¹; in experiment [6] it was 0.000332 s⁻¹. Moreover, the koff in experiment [7] was 0.000151 s⁻¹. The kon in experiment [1] was 3.9e+06 M⁻¹ s⁻¹; in experiment [2] it was 3.07e+06 M⁻¹ s⁻¹; in experiment [3], 1.14e+06 M⁻¹ s⁻¹; in experiment [4], 1.14e+06 M⁻¹ s⁻¹; in experiment [5] it was 3.07e+06 M⁻¹ s⁻¹; in experiment [6] it was 1.14e+06 M⁻¹ s⁻¹. In experiment [7], the kon came out at 998000 M⁻¹ s⁻¹. For the same molecule, the binding result in experiment [8] was “no binding”.

B2: ADI-11809 Fab (Fab, V domains shown)
VH: B1 VH with G30P, Q53R, S59G
VL: B1 VL
notes: Fab fragment; also called Ab6
Take B2: the Kd worked out at 0.21 nM in experiment [1]; 0.3 nM in experiment [2]; 0.0012 nM in experiment [3]; 0.0012 nM in experiment [4]; 0.3 nM in experiment [5]; 0.0012 nM in experiment [6]. Further, the Kd in experiment [7] amounted to 0.118 nM. The koff was 0.000711 s⁻¹ in experiment [1]; 0.000769 s⁻¹ in experiment [2]; 1.23e-06 s⁻¹ in experiment [3]; 1.23e-06 s⁻¹ in experiment [4]; 0.000769 s⁻¹ in experiment [5]; 1.23e-06 s⁻¹ in experiment [6]. Besides, in experiment [7], the koff was 0.000126 s⁻¹. Moreover, the kon in experiment [1] was determined as 3.4e+06 M⁻¹ s⁻¹; in experiment [2], 2.6e+06 M⁻¹ s⁻¹; in experiment [3] it was 1.02e+06 M⁻¹ s⁻¹; in experiment [4] it was 1.02e+06 M⁻¹ s⁻¹; in experiment [5], 2.6e+06 M⁻¹ s⁻¹; in experiment [6], 1.02e+06 M⁻¹ s⁻¹. In addition, the kon in experiment [7] stood at 1.06e+06 M⁻¹ s⁻¹. Besides, the binding result in experiment [8] was “no binding”.

B3: ADI-11835 Fab (Fab, V domains shown)
VH: QLQLQESGPGLVKPSETLSLTCTVSGGSISSTDYYWGWIRQPPGKGLEWIGSIGYSGTYYNPSLKSRVTISVDTSKNQFSLKLSSVTAADTAVYYCARETAHDVHGMDVWGQGTTVTVSS
VL: EIVLTQSPATLSLSPGERATLSCRASHSVYSYLAWYQQKPGQAPRLLIYDASNRATGIPARFSGSGSGTDFTLTISSLEPEDFAVYYCQQYDNLPTFGGGTKVEIK
notes: Fab fragment; also called Ab10; I35
B3: the Kd was found to be 0.98 nM in experiment [1]; 1.14 nM in experiment [2]; 0.53 nM in experiment [3]; 0.53 nM in experiment [4]; 1.14 nM in experiment [5]; 0.53 nM in experiment [6]. In experiment [7], the Kd turned out to be 6.86 nM. In addition, the koff in experiment [1] amounted to 0.00779 s⁻¹; in experiment [2] it was 0.00868 s⁻¹; in experiment [3], 0.00143 s⁻¹; in experiment [4], 0.00143 s⁻¹; in experiment [5], 0.00868 s⁻¹; in experiment [6], 0.00143 s⁻¹. This molecule gave a koff in experiment [7] of 0.0189 s⁻¹. Also, the kon in experiment [1] was 7.94e+06 M⁻¹ s⁻¹; in experiment [2] it was 7.6e+06 M⁻¹ s⁻¹; in experiment [3] it was 2.6e+06 M⁻¹ s⁻¹; in experiment [4], 2.6e+06 M⁻¹ s⁻¹; in experiment [5] it was 7.6e+06 M⁻¹ s⁻¹; in experiment [6], 2.6e+06 M⁻¹ s⁻¹. The molecule further displayed a kon in experiment [7] of 2.76e+06 M⁻¹ s⁻¹. Besides, the binding result in experiment [8] was “no binding”.

B4: ADI-11819 Fab (Fab, V domains shown)
VH: EVQLVESGGGLVKPGGSLRLSCAASGFTFSSYAMSWVRQAPGKGLEWVSSISSSSEGIYYADSVKGRFTISRDNAKNSLYLQMNSLRAEDTAVYYCAREGGPYYDSSGYFVYYGMDVWGQGTTVTVSS
VL: DIQMTQSPSTLSASVGDRVTITCRASNSISSWLAWYQQKPGKAPKLLIYEASSTKSGVPSRFSGSGSGTEFTLTISSLQPDDFATYYCQQYDDLPTFGGGTKVEIK
notes: Fab fragment; also called Ab8
As for B4, the Kd in experiment [1] was 0.11 nM; in experiment [2], 0.14 nM; in experiment [3], 0.02 nM; in experiment [4], 0.02 nM; in experiment [5], 0.14 nM; in experiment [6], 0.02 nM. In experiment [7], binding was put at a Kd of 4.96 nM. Moreover, the koff came out at 0.00103 s⁻¹ in experiment [1]; 0.000916 s⁻¹ in experiment [2]; 5.65e-05 s⁻¹ in experiment [3]; 5.65e-05 s⁻¹ in experiment [4]; 0.000916 s⁻¹ in experiment [5]; 5.65e-05 s⁻¹ in experiment [6]. The same molecule showed a koff in experiment [7] of 0.019 s⁻¹. In addition, the kon was 9.15e+06 M⁻¹ s⁻¹ in experiment [1]; 6.75e+06 M⁻¹ s⁻¹ in experiment [2]; 2.84e+06 M⁻¹ s⁻¹ in experiment [3]; 2.84e+06 M⁻¹ s⁻¹ in experiment [4]; 6.75e+06 M⁻¹ s⁻¹ in experiment [5]; 2.84e+06 M⁻¹ s⁻¹ in experiment [6]. In experiment [7], the kon stood at 3.82e+06 M⁻¹ s⁻¹. For the same molecule, the binding result in experiment [8] is given as “no binding”.

B5: ADI-10159 Fab (Fab, V domains shown)
VH: EVQLVESGGGLVQPGGSLRLSCAASGFTFSSYGMSWVRQAPGKGLEWVANIKQDGSEKYYVDSVKGRFTISRDNAKNSLYLQMNSLRAEDTAVYYCAREGGPYYDSSGYFVYYGMDVWGQGTTVTVSS
VL: B4 VL with N27Q, E50D, T54L, K55E, D92E, D93S, L94F
notes: Fab fragment; also called Ab1; G59
As to B5, the Kd was found to be 12.3 nM in experiment [1]; 5.56 nM in experiment [2]; 4.53 nM in experiment [3]; 4.53 nM in experiment [4]; 5.56 nM in experiment [5]; 4.53 nM in experiment [6]. In addition, binding in experiment [7] was characterised by a dissociation constant (Kd) of 74.9 nM. Also, the koff amounted to 0.012 s⁻¹ in experiment [1]; 0.005 s⁻¹ in experiment [2]; 0.00195 s⁻¹ in experiment [3]; 0.00195 s⁻¹ in experiment [4]; 0.005 s⁻¹ in experiment [5]; 0.00195 s⁻¹ in experiment [6]. In experiment [7], this molecule gave a koff of 0.0436 s⁻¹. The kon is 978000 M⁻¹ s⁻¹ in experiment [1]; 905000 M⁻¹ s⁻¹ in experiment [2]; 429000 M⁻¹ s⁻¹ in experiment [3]; 429000 M⁻¹ s⁻¹ in experiment [4]; 905000 M⁻¹ s⁻¹ in experiment [5]; 429000 M⁻¹ s⁻¹ in experiment [6]. This molecule also displayed a kon in experiment [7] of 528000 M⁻¹ s⁻¹. Moreover, in experiment [8], the binding result is listed as “no binding”.

B6: ADI-11830 Fab (Fab, V domains shown)
VH: EVQLVESGGGLVQPGGSLRLSCAASGFTFSSYWMSWVRQAPGKGLEWVANINTDGSEVYYVDSVKGRFTISRDNAKNSLYLQMNSLRAEDTAVYYCARDVGPGIAYQGHFDYWGQGTLVTVSS
VL: DIQMTQSPSSLSASVGDRVTITCRASQVIYSYLNWYQQKPGKAPKLLIYAASSLKSGVPSRFSGSGSGTDFTLTISSLQPEDFATYYCQQVYDTPLTFGGGTKVEIK
notes: Fab fragment; also called Ab9
Take B6: the Kd in experiment [1] worked out at 3.95 nM; in experiment [2], 4.5 nM; in experiment [3], 2.75 nM; in experiment [4], 2.75 nM; in experiment [5] it was 4.5 nM; in experiment [6] it was 2.75 nM. The molecule also registered a Kd in experiment [7] of 27.8 nM. For the same molecule, the koff is 0.0269 s⁻¹ in experiment [1]; 0.0299 s⁻¹ in experiment [2]; 0.00547 s⁻¹ in experiment [3]; 0.00547 s⁻¹ in experiment [4]; 0.0299 s⁻¹ in experiment [5]; 0.00547 s⁻¹ in experiment [6]. Besides, the off-rate (koff) in experiment [7] stood at 0.0364 s⁻¹. The kon in experiment [1] came out at 6.8e+06 M⁻¹ s⁻¹; in experiment [2], 6.67e+06 M⁻¹ s⁻¹; in experiment [3], 1.99e+06 M⁻¹ s⁻¹; in experiment [4], 1.99e+06 M⁻¹ s⁻¹; in experiment [5], 6.67e+06 M⁻¹ s⁻¹; in experiment [6] it was 1.99e+06 M⁻¹ s⁻¹. The same molecule yielded a kon in experiment [7] of 1.34e+06 M⁻¹ s⁻¹. In addition, the binding result in experiment [8] was “no binding”.
